B1: IRX6 (parent)
chain: YPCLEKPRIWSLAHTATASAVEGA

Variants of: B1
Assay: protein stability index of a GFP-peptide fusion (GPS, HEK-293T) (PSI 1-6); higher = more stable
Conditions: c terminus: a fixed tail appended
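Further: lentivirally expressed fusions sorted by FACS into six bins by GFP to DsRed ratio, PSI derived from sequencing read proportions per bin multiplied by bin number.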

| Variant | protein stability index |
| --- | --- |
| YPCLEKPQIWSLAHTATASAVEGA [R8Q] | 1.96 |
| YPCLEKPHIWSLAHTATASAVEGA [R8H] | 1.83 |
| YPCLEKPDIWSLAHTATASAVEGA [R8D] | 3.96 |
| YPCLEKPNIWSLAHTATASAVEGA [R8N] | 3.06 |
| YPCLEKPMIWSLAHTATASAVEGA [R8M] | 2.79 |
| YPCLEKPCIWSLAHTATASAVEGA [R8C] | 3.13 |
| YPCLEKPEIWSLAHTATASAVEGA [R8E] | 2.22 |
| YPCLEKPIIWSLAHTATASAVEGA [R8I] | 2.87 |
| YPCLEKPLIWSLAHTATASAVEGA [R8L] | 3.04 |
| YPCLEKPPIWSLAHTATASAVEGA [R8P] | 2.2 |
| YPCLEKPVIWSLAHTATASAVEGA [R8V] | 2.48 |
| YPCLEKPFIWSLAHTATASAVEGA [R8F] | 2.49 |
| YPCLEKPYIWSLAHTATASAVEGA [R8Y] | 2.17 |
| YPCLEKGRIWSLAHTATASAVEGA [P7G] | 2.84 |
| YPCLEKCRIWSLAHTATASAVEGA [P7C] | 2.69 |
| YPCLEKVRIWSLAHTATASAVEGA [P7V] | 1.89 |
| YPCLEKYRIWSLAHTATASAVEGA [P7Y] | 2.59 |
| YPCLEKHRIWSLAHTATASAVEGA [P7H] | 2.44 |
| YPCLEKERIWSLAHTATASAVEGA [P7E] | 2.27 |
| YPCLEKARIWSLAHTATASAVEGA [P7A] | 3.29 |
| YPCLEKDRIWSLAHTATASAVEGA [P7D] | 4.03 |
| YPCLEKMRIWSLAHTATASAVEGA [P7M] | 2.92 |
| YPCLEKTRIWSLAHTATASAVEGA [P7T] | 3.24 |
| YPCLEKKRIWSLAHTATASAVEGA [P7K] | 3.5 |

| Variant | protein stability index |
| --- | --- |
| YPCLEKQRIWSLAHTATASAVEGA [P7Q] | 2.32 |
| YPCLEKPRIWSLAHTHTASAVEGA [A16H] | 1.77 |
| YPCLEKPRIWSLAHTLTASAVEGA [A16L] | 1.87 |
| YPCLEKPRIWSLAHTDTASAVEGA [A16D] | 1.89 |
| YPCLEKPRIWSLAHTFTASAVEGA [A16F] | 5.06 |
| YPCLEKPRIWSLAHTETASAVEGA [A16E] | 4.29 |
| YPCLEKPRIWSLAHTKTASAVEGA [A16K] | 2.68 |
| YPCLEKPRIWSLAHTMTASAVEGA [A16M] | 3.88 |
| YPCLEKPRIWSLAHTCTASAVEGA [A16C] | 2.12 |
| YPCLEKPRIWSLAHTITASAVEGA [A16I] | 1.94 |
| YPCLEKPRIWSLAHHATASAVEGA [T15H] | 3.31 |
| YPCLEKPRIWSLAHAATASAVEGA [T15A] | 2.74 |
| YPCLEKPRIWSLAHKATASAVEGA [T15K] | 3.51 |
| YPCLEKPRIWSLAHDATASAVEGA [T15D] | 2.85 |
| YPCLEKPRIWSLAHLATASAVEGA [T15L] | 1.12 |
| YPCLEKPRIWSLAHIATASAVEGA [T15I] | 1.72 |
| YPCLEKPRIWSLAHWATASAVEGA [T15W] | 2.34 |
| YPCLEKPRIWSLAHSATASAVEGA [T15S] | 2.26 |
| YPCLEKPRIWSLAHCATASAVEGA [T15C] | 3.17 |
| YPCLEKPRIWSLAHRATASAVEGA [T15R] | 3.79 |
| YPCLEKPRIWSLAHGATASAVEGA [T15G] | 1.75 |
| YPCLEKPRLWSLAHTATASAVEGA [I9L] | 2.98 |
| YPCLEKPRDWSLAHTATASAVEGA [I9D] | 3.49 |
| YPCLEKPRRWSLAHTATASAVEGA [I9R] | 2.27 |

| Variant | protein stability index |
| --- | --- |
| YPCLEKPRCWSLAHTATASAVEGA [I9C] | 1.98 |
| YPCLEKPRGWSLAHTATASAVEGA [I9G] | 2.2 |
| YPCLEKPREWSLAHTATASAVEGA [I9E] | 3.59 |
| YPCLEKPRQWSLAHTATASAVEGA [I9Q] | 2.28 |
| YPCLEKPRVWSLAHTATASAVEGA [I9V] | 3.31 |
| YPCLEKPRFWSLAHTATASAVEGA [I9F] | 2.3 |
| YPCLEKPRHWSLAHTATASAVEGA [I9H] | 1.25 |
| YPCLEKPRKWSLAHTATASAVEGA [I9K] | 2.46 |
| YPCLEKPRNWSLAHTATASAVEGA [I9N] | 2.48 |
| YPCLEKPRSWSLAHTATASAVEGA [I9S] | 1.65 |
| YPCLEKPRAWSLAHTATASAVEGA [I9A] | 3.17 |
| YPCLEKPRMWSLAHTATASAVEGA [I9M] | 3.85 |
| YPCLEKPRYWSLAHTATASAVEGA [I9Y] | 2.3 |
| YPCLEKPRPWSLAHTATASAVEGA [I9P] | 2.35 |
| YPCLEKPRTWSLAHTATASAVEGA [I9T] | 1.51 |
| YPCLEKPRIWSLAETATASAVEGA [H14E] | 1.84 |
| YPCLEKPRIWSLAVTATASAVEGA [H14V] | 3.43 |
| YPCLEKPRIWSLAITATASAVEGA [H14I] | 1.41 |
| YPCLEKPRIWSLADTATASAVEGA [H14D] | 2.01 |
| YPCLEKPRIWSLAKTATASAVEGA [H14K] | 1.66 |
| YPCLEKPRIWSLAFTATASAVEGA [H14F] | 4.18 |
| YPCLEKPRIWSLAPTATASAVEGA [H14P] | 2.48 |
| YPCLEKPRIWSLAMTATASAVEGA [H14M] | 2.34 |
| YPCLEKPRIWSLAQTATASAVEGA [H14Q] | 2.52 |

| Variant | protein stability index |
| --- | --- |
| YPCLEKPRIWSLALTATASAVEGA [H14L] | 3.94 |
| YPCLEKPRIWSLASTATASAVEGA [H14S] | 2.18 |
| YPCLAKPRIWSLAHTATASAVEGA [E5A] | 1.95 |
| YPCLYKPRIWSLAHTATASAVEGA [E5Y] | 2.68 |
| YPCLCKPRIWSLAHTATASAVEGA [E5C] | 3.7 |
| YPCLKKPRIWSLAHTATASAVEGA [E5K] | 2.92 |
| YPCLHKPRIWSLAHTATASAVEGA [E5H] | 2.37 |
| YPCLNKPRIWSLAHTATASAVEGA [E5N] | 2.34 |
| YPCLWKPRIWSLAHTATASAVEGA [E5W] | 1.9 |
| YPCLRKPRIWSLAHTATASAVEGA [E5R] | 3.21 |
| YPCLTKPRIWSLAHTATASAVEGA [E5T] | 3.97 |
| YPCLQKPRIWSLAHTATASAVEGA [E5Q] | 3.22 |
| YPCLFKPRIWSLAHTATASAVEGA [E5F] | 3.7 |
| YPCLSKPRIWSLAHTATASAVEGA [E5S] | 2.98 |
| YPCLLKPRIWSLAHTATASAVEGA [E5L] | 3.24 |
| YPCLVKPRIWSLAHTATASAVEGA [E5V] | 4.3 |
| YPCLDKPRIWSLAHTATASAVEGA [E5D] | 2.81 |
| YPCLGKPRIWSLAHTATASAVEGA [E5G] | 3.15 |
| YPCLPKPRIWSLAHTATASAVEGA [E5P] | 2.63 |
| YPCLEKPRILSLAHTATASAVEGA [W10L] | 3.78 |
| YPCLEKPRIYSLAHTATASAVEGA [W10Y] | 1.62 |
| YPCLEKPRISSLAHTATASAVEGA [W10S] | 4.42 |

From the supplement of paper PMC10567573
